# In the supplement of paper PMC9112550, “Optimization of the antimicrobial peptide Bac7 by deep mutational scanning” (BMC Biology, 2022):
# Test system: Escherichia coli TOP10
# Assay: shrunken log2 fold change of peptide-encoding DNA abundance (4.5 h post-induction vs induction); higher = less antimicrobial activity (less host growth inhibition)
# Conditions: time post-induction: 4.5 h; library: site-saturation at positions 5, 18, 19, 20
# 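Further: peptides expressed intracellularly from a pBAD plasmid library in pooled LB shake-flask culture, induced with 0.3% L-arabinose, DNA abundance read by NGS, three biological replicates, DESeq2 with apeglm shrinkage.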
row,Sequence,shrunken log2 fold change
1,RRIRKRPPRLPRPRPRPFTGPRP,0.0735
2,RRIRYRPPRLPRPRPRPFTIPRP,-0.00992
3,RRIRHRPPRLPRPRPRPWKWPRP,-0.00968
4,RRIRTRPPRLPRPRPRPEEAPRP,-0.0948
5,RRIRWRPPRLPRPRPRPTTYPRP,-0.187
6,RRIRFRPPRLPRPRPRPANHPRP,-0.264
7,RRIRCRPPRLPRPRPRPGVLPRP,0.121
8,RRIRYRPPRLPRPRPRPAMKPRP,-0.000923
9,RRIRGRPPRLPRPRPRPNLFPRP,0.129
10,RRIRMRPPRLPRPRPRPSLYPRP,-0.126
11,RRIRRRPPRLPRPRPRPSQCPRP,0.0735
12,RRIRQRPPRLPRPRPRPTGIPRP,-0.177
13,RRIRKRPPRLPRPRPRPGDKPRP,0.0976
14,RRIRMRPPRLPRPRPRPWEMPRP,-0.0802
15,RRIRNRPPRLPRPRPRPCKLPRP,-0.362
16,RRIRDRPPRLPRPRPRPDYWPRP,-0.00116
17,RRIRERPPRLPRPRPRPHNNPRP,0.486
18,RRIRMRPPRLPRPRPRPHHDPRP,0.0126
19,RRIRHRPPRLPRPRPRPTNCPRP,-0.197
20,RRIRYRPPRLPRPRPRPFTSPRP,-0.0993
21,RRIRCRPPRLPRPRPRPFIRPRP,-0.249
22,RRIRRRPPRLPRPRPRPCEYPRP,0.0177
23,RRIRSRPPRLPRPRPRPDTFPRP,0.024
24,RRIRDRPPRLPRPRPRPTTPPRP,0.351
25,RRIRTRPPRLPRPRPRPVEEPRP,-0.08

row,Sequence,shrunken log2 fold change
1,RRIRERPPRLPRPRPRPWFQPRP,-0.0883
2,RRIRSRPPRLPRPRPRPFVGPRP,-0.222
3,RRIRERPPRLPRPRPRPQMHPRP,-0.634
4,RRIRRRPPRLPRPRPRPKWMPRP,0.338
5,RRIRSRPPRLPRPRPRPRSYPRP,-0.066
6,RRIRHRPPRLPRPRPRPKCAPRP,-0.0408
7,RRIRVRPPRLPRPRPRPNYAPRP,-0.192
8,RRIRWRPPRLPRPRPRPDAPPRP,0.558
9,RRIRERPPRLPRPRPRPWGLPRP,-0.026
10,RRIRFRPPRLPRPRPRPMELPRP,0.112
11,RRIRLRPPRLPRPRPRPSLYPRP,-0.431
12,RRIRARPPRLPRPRPRPTQFPRP,0.071
13,RRIRKRPPRLPRPRPRPLDKPRP,-0.0705
14,RRIRRRPPRLPRPRPRPRMSPRP,0.938
15,RRIRARPPRLPRPRPRPQFAPRP,0.402
16,RRIRDRPPRLPRPRPRPRWWPRP,0.0238
17,RRIRTRPPRLPRPRPRPWEAPRP,0.337
18,RRIRIRPPRLPRPRPRPDLKPRP,-0.194
19,RRIRFRPPRLPRPRPRPWDKPRP,-1.33
20,RRIRDRPPRLPRPRPRPYQWPRP,0.0508
21,RRIRVRPPRLPRPRPRPENLPRP,-0.111
22,RRIRWRPPRLPRPRPRPQWNPRP,-0.156
23,RRIRWRPPRLPRPRPRPTHNPRP,0.0181
24,RRIRVRPPRLPRPRPRPDKAPRP,-0.0129
25,RRIRARPPRLPRPRPRPHFNPRP,0.122

row,Sequence,shrunken log2 fold change
1,RRIRQRPPRLPRPRPRPNQLPRP,-0.499
2,RRIRPRPPRLPRPRPRPLYNPRP,-0.623
3,RRIRKRPPRLPRPRPRPDDKPRP,0.107
4,RRIRQRPPRLPRPRPRPHFWPRP,-0.0983
5,RRIRDRPPRLPRPRPRPTKDPRP,0.0518
6,RRIRVRPPRLPRPRPRPMPKPRP,0.0271
7,RRIRRRPPRLPRPRPRPGFCPRP,0.37
8,RRIRMRPPRLPRPRPRPTIIPRP,-0.374
9,RRIRSRPPRLPRPRPRPEFDPRP,0.202
10,RRIRVRPPRLPRPRPRPDYYPRP,-0.679
11,RRIRHRPPRLPRPRPRPACTPRP,0.0224
12,RRIRARPPRLPRPRPRPWSFPRP,-0.00357
13,RRIRPRPPRLPRPRPRPVEMPRP,0.0666
14,RRIRIRPPRLPRPRPRPNNPPRP,-0.471
15,RRIRNRPPRLPRPRPRPSFTPRP,-0.255
16,RRIRWRPPRLPRPRPRPSGAPRP,0.527
17,RRIRNRPPRLPRPRPRPQCDPRP,-0.282
18,RRIRQRPPRLPRPRPRPQQKPRP,-0.023
19,RRIRVRPPRLPRPRPRPPNNPRP,-0.233
20,RRIRYRPPRLPRPRPRPFHFPRP,-0.19
21,RRIRLRPPRLPRPRPRPQVYPRP,-0.11
22,RRIRARPPRLPRPRPRPCREPRP,0.0197
23,RRIRKRPPRLPRPRPRPSANPRP,0.0126
24,RRIRPRPPRLPRPRPRPCTTPRP,-0.732
25,RRIRSRPPRLPRPRPRPYWPPRP,-0.642

row,Sequence,shrunken log2 fold change
1,RRIRDRPPRLPRPRPRPMYAPRP,0.143
2,RRIRRRPPRLPRPRPRPGKNPRP,0.16
3,RRIRMRPPRLPRPRPRPIRDPRP,-0.261
4,RRIRCRPPRLPRPRPRPEIVPRP,-0.221
5,RRIRIRPPRLPRPRPRPMCVPRP,-0.209
6,RRIRQRPPRLPRPRPRPWCHPRP,-0.169
7,RRIRIRPPRLPRPRPRPNKKPRP,-0.0918
8,RRIRARPPRLPRPRPRPHMIPRP,0.028
9,RRIRIRPPRLPRPRPRPDPRPRP,0.132
10,RRIRFRPPRLPRPRPRPGAWPRP,-0.15
11,RRIRPRPPRLPRPRPRPVGIPRP,0.0618
12,RRIRGRPPRLPRPRPRPQGPPRP,0.224
13,RRIRHRPPRLPRPRPRPDKLPRP,-0.0246
14,RRIRTRPPRLPRPRPRPVRMPRP,0.148
15,RRIRMRPPRLPRPRPRPRWFPRP,0.717
16,RRIRHRPPRLPRPRPRPHDMPRP,-0.291
17,RRIRGRPPRLPRPRPRPLWGPRP,0.583
18,RRIRDRPPRLPRPRPRPHWNPRP,-0.201
19,RRIRPRPPRLPRPRPRPVSTPRP,0.13
20,RRIRVRPPRLPRPRPRPFNHPRP,-0.106
21,RRIRVRPPRLPRPRPRPWCKPRP,0.0335
22,RRIRSRPPRLPRPRPRPGGQPRP,0.279
23,RRIRRRPPRLPRPRPRPDFTPRP,0.0748
24,RRIRFRPPRLPRPRPRPQAGPRP,-0.0266
25,RRIRGRPPRLPRPRPRPDHIPRP,0.199

row,Sequence,shrunken log2 fold change
1,RRIRFRPPRLPRPRPRPWAIPRP,0.268
2,RRIRWRPPRLPRPRPRPHVMPRP,-0.254
3,RRIRYRPPRLPRPRPRPNDMPRP,-1.16
4,RRIRHRPPRLPRPRPRPWFEPRP,-0.366
5,RRIRERPPRLPRPRPRPYMCPRP,-0.216
6,RRIRRRPPRLPRPRPRPDIAPRP,-0.0619
7,RRIRWRPPRLPRPRPRPCVDPRP,0.0275
8,RRIRSRPPRLPRPRPRPAAAPRP,0.868
9,RRIRERPPRLPRPRPRPAWPPRP,0.359
10,RRIRWRPPRLPRPRPRPAAIPRP,0.302
11,RRIRNRPPRLPRPRPRPMKIPRP,-0.121
12,RRIRPRPPRLPRPRPRPPNWPRP,0.534
13,RRIRGRPPRLPRPRPRPILYPRP,0.0934
14,RRIRRRPPRLPRPRPRPITCPRP,-0.307
15,RRIRRRPPRLPRPRPRPEPPPRP,1.02
16,RRIRQRPPRLPRPRPRPNSFPRP,0.151
17,RRIRTRPPRLPRPRPRPTGEPRP,0.178
18,RRIRLRPPRLPRPRPRPCVIPRP,-0.27
19,RRIRFRPPRLPRPRPRPYFRPRP,-0.134
20,RRIRCRPPRLPRPRPRPKFRPRP,-0.375
21,RRIRKRPPRLPRPRPRPACKPRP,0.0609
22,RRIRIRPPRLPRPRPRPPKQPRP,-0.158
23,RRIRQRPPRLPRPRPRPDCCPRP,-0.0188
24,RRIRCRPPRLPRPRPRPYIGPRP,-1.24
25,RRIRDRPPRLPRPRPRPMLMPRP,0.348

row,Sequence,shrunken log2 fold change
1,RRIRTRPPRLPRPRPRPPKWPRP,0.181
2,RRIRLRPPRLPRPRPRPFIQPRP,-0.418
3,RRIRERPPRLPRPRPRPEAKPRP,0.0152
4,RRIRSRPPRLPRPRPRPAMSPRP,-0.0932
5,RRIRSRPPRLPRPRPRPPLPPRP,0.688
6,RRIRERPPRLPRPRPRPMNLPRP,-0.0666
7,RRIRKRPPRLPRPRPRPAGKPRP,0.582
8,RRIRVRPPRLPRPRPRPCFMPRP,-0.302
9,RRIRMRPPRLPRPRPRPGFCPRP,0.442
10,RRIRPRPPRLPRPRPRPFPCPRP,-0.0101
11,RRIRNRPPRLPRPRPRPSCSPRP,-0.384
12,RRIRWRPPRLPRPRPRPRQTPRP,0.0702
13,RRIRTRPPRLPRPRPRPSAQPRP,0.0735
14,RRIRYRPPRLPRPRPRPYVKPRP,-1.12
15,RRIRLRPPRLPRPRPRPWIDPRP,-0.0305
16,RRIRKRPPRLPRPRPRPLVFPRP,-0.0076
17,RRIRGRPPRLPRPRPRPMLMPRP,1.09
18,RRIRCRPPRLPRPRPRPYAKPRP,-0.671
19,RRIRIRPPRLPRPRPRPLPSPRP,-0.0327
20,RRIRLRPPRLPRPRPRPFFEPRP,0.058
21,RRIRMRPPRLPRPRPRPVMHPRP,0.154
22,RRIRQRPPRLPRPRPRPPSKPRP,0.353
23,RRIRMRPPRLPRPRPRPDSYPRP,0.0873
24,RRIRCRPPRLPRPRPRPRVSPRP,0.064
25,RRIRNRPPRLPRPRPRPERQPRP,0.221
